What follows are substances tested against NTAP-tagged TRAPPC8 (assay: co-IP (IP: anti-Myc, immunoblot)). Conditions: 0.5% input, parent: 1.

| ratio to parent | Substance |
| --- | --- |
| 1.04 | Mouse OFD1, wild type (from UniProt Q80Z25) A80T |
| 1 | Mouse OFD1, wild type (from UniProt Q80Z25) G139S |
| 0.7 | Mouse OFD1, wild type (from UniProt Q80Z25) S75F |
| 1.02 | Mouse OFD1, wild type (from UniProt Q80Z25) S437R |
